We go through three substances from patent US20030129163A1.

This assay deals with KDR/Flk-1 antibody. As to the kind of experiment: cell-based or functional assay.

Regarding “wild-type CAE virions (Wild Type CAE env, amphotropic)”, the # Blue Colonies (X-gal) on 1 x 10^5 KSY1 cells/well contacted with 5000 ng KDR/Flk-1 Ab, MOI = 10 (blue colonies) is 20 and the # Blue Colonies (X-gal) on 5 x 10^5 KSY1 cells/well contacted with 5000 ng KDR/Flk-1 Ab, MOI = 4 (blue colonies) came out at 66.
Take “PABA.CAE retroviral vector (Protein A at BstEII and Avr + Wild Type CAE env) (from UniProt P38507 212-269)”: the # Blue Colonies (X-gal) on 5 x 10^5 KSY1 cells/well contacted with 1000 ng KDR/Flk-1 Ab, MOI = 4 (blue colonies) was determined as 648 and the # Blue Colonies (X-gal) on 5 x 10^5 KSY1 cells/well contacted with 5000 ng KDR/Flk-1 Ab, MOI = 4 (blue colonies) is 946.
For the substance “PABN.CAE retroviral vector (Protein A at BstEII and Ngo + Wild Type CAE env) (from UniProt P38507 212-269)”, the # Blue Colonies (X-gal) on 1 x 10^5 KSY1 cells/well contacted with 1000 ng KDR/Flk-1 Ab, MOI = 10 (blue colonies) amounted to 1560 and the # Blue Colonies (X-gal) on 1 x 10^5 KSY1 cells/well contacted with 5000 ng KDR/Flk-1 Ab, MOI = 10 (blue colonies) came out at 2550.
